Experimental findings from patent publication US20250289897A1 (Eli Lilly, published 2025) are described below.

In assay [1] the target is T1, human LEPR-ECD-His (human, UniProt P48357 22-839).
T1 sequence: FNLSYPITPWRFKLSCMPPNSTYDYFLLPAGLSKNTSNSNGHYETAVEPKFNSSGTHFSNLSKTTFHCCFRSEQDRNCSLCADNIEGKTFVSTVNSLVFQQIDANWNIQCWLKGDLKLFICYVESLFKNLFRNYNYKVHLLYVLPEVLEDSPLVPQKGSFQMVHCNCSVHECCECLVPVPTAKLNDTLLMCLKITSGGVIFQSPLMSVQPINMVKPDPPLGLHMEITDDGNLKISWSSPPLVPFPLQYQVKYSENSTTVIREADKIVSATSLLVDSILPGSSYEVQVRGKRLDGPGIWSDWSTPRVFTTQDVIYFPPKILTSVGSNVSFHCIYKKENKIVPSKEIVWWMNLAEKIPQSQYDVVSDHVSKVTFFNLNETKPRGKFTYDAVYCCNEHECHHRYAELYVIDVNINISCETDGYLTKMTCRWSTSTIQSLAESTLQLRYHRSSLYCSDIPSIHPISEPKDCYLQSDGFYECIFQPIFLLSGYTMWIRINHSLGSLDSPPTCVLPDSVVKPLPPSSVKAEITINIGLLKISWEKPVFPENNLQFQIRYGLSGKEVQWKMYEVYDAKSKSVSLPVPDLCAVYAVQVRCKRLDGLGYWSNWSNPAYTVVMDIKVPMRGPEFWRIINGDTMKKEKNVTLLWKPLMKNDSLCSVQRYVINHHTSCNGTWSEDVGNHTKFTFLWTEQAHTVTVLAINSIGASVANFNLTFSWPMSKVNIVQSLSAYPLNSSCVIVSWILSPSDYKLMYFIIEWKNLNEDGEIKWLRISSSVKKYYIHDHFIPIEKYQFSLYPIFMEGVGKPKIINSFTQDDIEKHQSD
Description: SPR (Biacore T200), antibody captured on Protein A/G chip, His-tagged LEPR-ECD as analyte, 1:1 fit; mean n=3, SD 2.2E-9.

Assay [2] has as its target T2, cynomolgus monkey LEPR, full length, on HEK293-STAT3Luc-cmLepR2 cells (Macaca fascicularis).
T2 construct: whole, on cells; also called cyno-LEPR; Macaca fascicularis LEPR
In words: flow cytometry on live HEK293-STAT3Luc-cmLepR2 cells, AF647 anti-human IgG; average of 4 runs, SD 0.7.

In assay [3] the target is T3, canine LEPR-ECD-His (canine).
T3 chain: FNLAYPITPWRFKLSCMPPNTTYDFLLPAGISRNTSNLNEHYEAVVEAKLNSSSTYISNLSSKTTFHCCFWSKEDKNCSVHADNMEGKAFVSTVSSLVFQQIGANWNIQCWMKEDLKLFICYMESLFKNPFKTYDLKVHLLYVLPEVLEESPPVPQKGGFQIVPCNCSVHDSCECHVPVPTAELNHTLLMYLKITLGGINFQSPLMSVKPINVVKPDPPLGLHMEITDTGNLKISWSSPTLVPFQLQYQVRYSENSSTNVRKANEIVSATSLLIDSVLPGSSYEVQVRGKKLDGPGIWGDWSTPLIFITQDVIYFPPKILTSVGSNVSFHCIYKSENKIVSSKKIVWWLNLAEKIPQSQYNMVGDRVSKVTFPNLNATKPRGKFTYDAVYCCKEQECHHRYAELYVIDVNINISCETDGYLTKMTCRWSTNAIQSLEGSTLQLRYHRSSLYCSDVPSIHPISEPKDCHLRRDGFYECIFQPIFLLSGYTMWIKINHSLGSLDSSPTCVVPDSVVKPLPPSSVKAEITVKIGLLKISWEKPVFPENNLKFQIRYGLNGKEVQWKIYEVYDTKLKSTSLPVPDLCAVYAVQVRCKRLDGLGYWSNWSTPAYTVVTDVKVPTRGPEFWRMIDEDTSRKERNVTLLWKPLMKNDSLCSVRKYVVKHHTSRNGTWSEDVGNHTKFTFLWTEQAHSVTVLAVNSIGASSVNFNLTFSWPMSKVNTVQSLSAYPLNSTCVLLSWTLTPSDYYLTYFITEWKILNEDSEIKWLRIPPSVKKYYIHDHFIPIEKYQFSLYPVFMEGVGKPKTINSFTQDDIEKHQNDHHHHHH
Description: SPR (Biacore T200), antibody captured on Protein A/G chip, His-tagged LEPR-ECD as analyte, 1:1 fit; mean n=3, SD 2.4E-8.

B1: Antibody A (antibody, human IgG1, kappa, L234A L235A)
heavy: EVQLLESGGGLVQPGGSLRLSCAASGFTFSSFAMSWVRQAPGKGLEWVSAISGSGGSTYSADSVRGRFTISRDNSKNTLYLQMNSLRAEDTAVYYCAKDQGDWDFLFDYWGQGTLVTVSSASTKGPSVFPLAPSSKSTSGGTAALGCLVKDYFPEPVTVSWNSGALTSGVHTFPAVLQSSGLYSLSSVVTVPSSSLGTQTYICNVNHKPSNTKVDKRVEPKSCDKTHTCPPCPAPEAAGGPSVFLFPPKPKDTLYITREPEVTCVVVSVSHEDPEVKFNWYVDGVEVHNAKTKPREEQYNSTYRVVSVLTVLHQDWLNGKEYKCKVSNKALPAPIEKTISKAKGQPREPQVYTLPPSREEMTKNQVSLTCLVKGFYPSDIAVEWESNGQPENNYKTTPPVLDSDGSFFLYSKLTVDKSRWQQGNVFSCSVMHEALHNHYTQKSLSLSPGK
light: DIQMTQSPSFLSASVGDRVTITCRASQGISSSLAWYQQKPGKAPKLLIYTASTLQSGVPSRFSGSGSGTEFTLTISSLQPEDFATYYCQQLIYYPFTFGQGTKVEIKRTVAAPSVFIFPPSDEQLKSGTASVVCLLNNFYPREAKVQWKVDNALQSGNSQESVTEQDSKDSTYSLSSTLTLSKADYEKHKVYACEVTHQGLSSPVTKSFNRGEC
notes: IgG1 mAb
Turning to B1, the Kd in assay [1] was found to be 20 nM; in assay [3], 130 nM. The molecule also showed an EC50 in assay [2] of 0.74 nM.
